Tested on: Escherichia coli TOP10
Test: shrunken log2 fold change of peptide-encoding DNA abundance (4.5 h post-induction vs induction); higher = less antimicrobial activity (less host growth inhibition)
Details: time post-induction: 4.5 h; library: site-saturation at positions 5, 18, 19, 20
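Also: peptides expressed intracellularly from a pBAD plasmid library in pooled LB shake-flask culture, induced with 0.3% L-arabinose, DNA abundance read by NGS, three biological replicates, DESeq2 with apeglm shrinkage.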

Row | Sequence | shrunken log2 fold change
1 | RRIRQRPPRLPRPRPRPGWSPRP | 0.119
2 | RRIRFRPPRLPRPRPRPSLGPRP | 0.0257
3 | RRIRPRPPRLPRPRPRPKAAPRP | 0.386
4 | RRIRNRPPRLPRPRPRPTPMPRP | 0.0289
5 | RRIRVRPPRLPRPRPRPTKQPRP | -0.0322
6 | RRIRMRPPRLPRPRPRPENEPRP | 2.96
7 | RRIRDRPPRLPRPRPRPPEGPRP | 0.76
8 | RRIRLRPPRLPRPRPRPALDPRP | 0.396
9 | RRIRTRPPRLPRPRPRPGVVPRP | 0.0177
10 | RRIRRRPPRLPRPRPRPHKGPRP | 0.221
11 | RRIRMRPPRLPRPRPRPNRVPRP | -0.144
12 | RRIRCRPPRLPRPRPRPAWCPRP | 0.128
13 | RRIRFRPPRLPRPRPRPTPIPRP | 0.485
14 | RRIRYRPPRLPRPRPRPFKWPRP | -0.278
15 | RRIRDRPPRLPRPRPRPRLLPRP | 0.146
16 | RRIRFRPPRLPRPRPRPRQMPRP | -0.0877
17 | RRIRERPPRLPRPRPRPWLIPRP | -0.397
18 | RRIRARPPRLPRPRPRPAFQPRP | 0.174
19 | RRIRMRPPRLPRPRPRPHDKPRP | 0.0701
20 | RRIRVRPPRLPRPRPRPFKKPRP | -0.115
21 | RRIRSRPPRLPRPRPRPPFCPRP | 0.135
22 | RRIRFRPPRLPRPRPRPTWDPRP | 0.0928
23 | RRIRNRPPRLPRPRPRPFLFPRP | -0.301
24 | RRIRRRPPRLPRPRPRPGFGPRP | 0.497
25 | RRIRKRPPRLPRPRPRPMANPRP | 0.0288

Row | Sequence | shrunken log2 fold change
26 | RRIRIRPPRLPRPRPRPMKTPRP | -0.057
27 | RRIRMRPPRLPRPRPRPPTEPRP | 0.413
28 | RRIRVRPPRLPRPRPRPCEKPRP | -0.0491
29 | RRIRFRPPRLPRPRPRPKEFPRP | -0.0812
30 | RRIRMRPPRLPRPRPRPHSKPRP | -0.0418
31 | RRIRMRPPRLPRPRPRPWHEPRP | -0.126
32 | RRIRYRPPRLPRPRPRPLTKPRP | -0.281
33 | RRIRFRPPRLPRPRPRPEPPPRP | 0.702
34 | RRIRKRPPRLPRPRPRPIYSPRP | -0.41
35 | RRIRERPPRLPRPRPRPCRSPRP | -0.0928
36 | RRIRHRPPRLPRPRPRPRMFPRP | -0.219
37 | RRIRLRPPRLPRPRPRPTHVPRP | 0.329
38 | RRIRNRPPRLPRPRPRPEVKPRP | -0.031
39 | RRIRRRPPRLPRPRPRPIFCPRP | 0.0473
40 | RRIRHRPPRLPRPRPRPQFPPRP | -0.157
41 | RRIRNRPPRLPRPRPRPPKRPRP | 0.497
42 | RRIRVRPPRLPRPRPRPMCCPRP | -0.0676
43 | RRIRKRPPRLPRPRPRPADEPRP | 0.19
44 | RRIRKRPPRLPRPRPRPRHDPRP | 0.254
45 | RRIRFRPPRLPRPRPRPLLCPRP | -0.105
46 | RRIRSRPPRLPRPRPRPAALPRP | -0.0411
47 | RRIRRRPPRLPRPRPRPCHMPRP | -0.237
48 | RRIRRRPPRLPRPRPRPYPKPRP | -0.0202
49 | RRIRTRPPRLPRPRPRPASQPRP | 0.0336
50 | RRIRIRPPRLPRPRPRPEMPPRP | 0.0112

Row | Sequence | shrunken log2 fold change
51 | RRIRERPPRLPRPRPRPVGTPRP | 0.0306
52 | RRIRMRPPRLPRPRPRPYKSPRP | -0.215
53 | RRIRRRPPRLPRPRPRPPPKPRP | 0.995
54 | RRIRKRPPRLPRPRPRPGKIPRP | 0.494
55 | RRIRTRPPRLPRPRPRPFEVPRP | -0.101
56 | RRIRQRPPRLPRPRPRPDQAPRP | 0.0424
57 | RRIRERPPRLPRPRPRPNPIPRP | -0.213
58 | RRIRWRPPRLPRPRPRPIYHPRP | -0.305
59 | RRIRARPPRLPRPRPRPVHAPRP | 0.768
60 | RRIRNRPPRLPRPRPRPSDKPRP | -0.363
61 | RRIRNRPPRLPRPRPRPWSDPRP | -0.0436
62 | RRIRFRPPRLPRPRPRPHWLPRP | -0.066
63 | RRIRNRPPRLPRPRPRPIRAPRP | -0.0265
64 | RRIRARPPRLPRPRPRPLTKPRP | 0.339
65 | RRIRKRPPRLPRPRPRPVFFPRP | 0.341
66 | RRIRLRPPRLPRPRPRPKTTPRP | 0.196
67 | RRIRCRPPRLPRPRPRPEFGPRP | 0.241
68 | RRIRLRPPRLPRPRPRPKTKPRP | -0.021
69 | RRIRCRPPRLPRPRPRPTPGPRP | 0.589
70 | RRIRHRPPRLPRPRPRPHQLPRP | -0.196
71 | RRIRGRPPRLPRPRPRPETKPRP | 0.374
72 | RRIRHRPPRLPRPRPRPECDPRP | -0.0404
73 | RRIRNRPPRLPRPRPRPEVAPRP | 0.418
74 | RRIRERPPRLPRPRPRPQESPRP | -0.239
75 | RRIRNRPPRLPRPRPRPCISPRP | -0.802

Row | Sequence | shrunken log2 fold change
76 | RRIRMRPPRLPRPRPRPACRPRP | 0.633
77 | RRIRCRPPRLPRPRPRPCTRPRP | -0.321
78 | RRIRYRPPRLPRPRPRPNSDPRP | -0.233
79 | RRIRPRPPRLPRPRPRPLAQPRP | 0.192
80 | RRIRVRPPRLPRPRPRPFVIPRP | -0.477
81 | RRIRTRPPRLPRPRPRPVYKPRP | -0.188
82 | RRIRPRPPRLPRPRPRPSDHPRP | -0.605
83 | RRIRVRPPRLPRPRPRPGHYPRP | -0.125
84 | RRIRGRPPRLPRPRPRPRMCPRP | 0.197
85 | RRIRSRPPRLPRPRPRPKGYPRP | 0.00982
86 | RRIRQRPPRLPRPRPRPLSLPRP | -0.0321
87 | RRIRNRPPRLPRPRPRPLESPRP | -0.0331
88 | RRIRVRPPRLPRPRPRPNWYPRP | -0.523
89 | RRIRCRPPRLPRPRPRPEHVPRP | 0.229
90 | RRIRTRPPRLPRPRPRPWGTPRP | -0.11
91 | RRIRQRPPRLPRPRPRPAMHPRP | -0.125
92 | RRIRIRPPRLPRPRPRPKLCPRP | 0.0563
93 | RRIRERPPRLPRPRPRPFFGPRP | -0.217
94 | RRIRGRPPRLPRPRPRPTTTPRP | 1.07
95 | RRIRRRPPRLPRPRPRPWLSPRP | 0.0437
96 | RRIRGRPPRLPRPRPRPGMRPRP | 1.68
97 | RRIRYRPPRLPRPRPRPGRDPRP | -0.204
98 | RRIRERPPRLPRPRPRPNDEPRP | -0.0119
99 | RRIRPRPPRLPRPRPRPYMRPRP | -0.000384
100 | RRIRERPPRLPRPRPRPHKRPRP | 3.62

Row | Sequence | shrunken log2 fold change
101 | RRIRGRPPRLPRPRPRPVIYPRP | 0.0164
102 | RRIRQRPPRLPRPRPRPCMCPRP | -0.147
103 | RRIRPRPPRLPRPRPRPHLAPRP | 0.0568
104 | RRIRIRPPRLPRPRPRPFYSPRP | -0.476
105 | RRIRDRPPRLPRPRPRPQFPPRP | 0.0234
106 | RRIRTRPPRLPRPRPRPCCMPRP | -0.197
107 | RRIRMRPPRLPRPRPRPELVPRP | 0.0445
108 | RRIRSRPPRLPRPRPRPTDDPRP | -0.0687
109 | RRIRKRPPRLPRPRPRPVWNPRP | -0.106
110 | RRIRKRPPRLPRPRPRPVSLPRP | 0.0505
111 | RRIRHRPPRLPRPRPRPRMDPRP | 0.0986
112 | RRIRNRPPRLPRPRPRPCFFPRP | -0.489
113 | RRIRFRPPRLPRPRPRPYIIPRP | -0.395
114 | RRIRNRPPRLPRPRPRPKIHPRP | -0.719
115 | RRIRFRPPRLPRPRPRPRVQPRP | 0.263
116 | RRIRARPPRLPRPRPRPWKSPRP | -0.00111
117 | RRIRPRPPRLPRPRPRPSFWPRP | 0.129
118 | RRIRIRPPRLPRPRPRPNEDPRP | -0.488
119 | RRIRLRPPRLPRPRPRPDDMPRP | 0.0411
120 | RRIRLRPPRLPRPRPRPMFIPRP | -0.734
121 | RRIRKRPPRLPRPRPRPVPGPRP | 0.515
122 | RRIRRRPPRLPRPRPRPGHMPRP | 0.101
123 | RRIRDRPPRLPRPRPRPRVSPRP | 0.223
124 | RRIRVRPPRLPRPRPRPRYNPRP | -0.381
125 | RRIRSRPPRLPRPRPRPWCKPRP | 0.149

From the supplement of paper PMC9112550, “Optimization of the antimicrobial peptide Bac7 by deep mutational scanning” (BMC Biology, 2022)
